Assay: soluble on expression in E. coli; label from the status in PepcDB or PDB records

Sequence	soluble on expression in E. coli
MSDFVPETEENEEESQKIDEIHEIPAQAIIIDQSFSRRFLNNKWYGKYGEDGDLLEHIDEDWEPVGLDEVEFLSQLWFEQEDQEKKAHRHYDWDEEKKEWVPKAKQEEVNEDFIAEYQANYGVQYDDIYKKMDEELQEKAAKAQKEDEEKKEKKRKKKVGLGAGEDAKEGWLDLGDKVHAVYVSNLPEDITDEEFQKFMSKCGVIQPDIRTNKPKCKLYREENGKLKGDGRCCYIKKESVELACNILDGANLNGREVKVEEARFEMKGDFDPARKRRKLTAAQKKRYMEQQNKIFEWTPDKPRNYRPKSDCTVIVKNLFTQEMMNKNAALMLDLKEEMTQSCQKYGIVKKVVVYANHPDGVVSVTFPTTEESDMAVKYLHGRVVDGRKLTAELWDGRTKFKVEETEEDEEKRRKEYEKYIEGGSSETKEESDDDDDDEAEDN	not soluble
MSDGETAVIQSLAPGPIDGVSYPLKMVYCGQCSMPPEYCDYSGQTDVCRAWATQNAPELLEGLEISDEPAADGDEKKKQKRGGKGSKTGAAAAQAAASGGKKKGGGPQKVTLQREPRGKKSVTVIKGLATFDIDLKVASKLFAQKFACGSSVTGADEIVIQGDVKDDLLDLIPEKWKQVTDEQIDDLGDKKR	soluble
MSDGSDDDTNNDGNYCKNVSYNFLIQRLAEVSNRKCLLLPKKKNRVDYISIMQTAEFYPELVNSSPPLEPGFTSCEVFVVDKKVDKDTLHLDNFSPYHIGATRRTLERQHSYFYRVNESGNFVPAIKTNGTHILRILVSILGSCPALNRKIYRMVKIESQNKNCLPSLIVYTFEPGHEIPKPNAPAILRRQTSDEIQKILNIPGTSFSQAHSEAVLNRFYDDLPIRDEASDQKRARYSIESTSSTNNQLNEINSFVVPKFEGRQESEQLFRDVKVEQFEESAEISINNRALSPHIQPSKTSVVNRPNQQNRKFQNYDMFSAGVISTATVPAPMFHPHITPIADLKDDDGYDPEELTQRNKLASLYRLVDLFRWSQGIYNHITVRVSTDPDEILINAFGQLYSEVSASSLIKVDLDGTVIDGGSTNFGVNQAGYVLHSAIHNGRPEVKCVVHLHHPSVVAVSAQKCGLLPISQESMIVGDVGYHEYRGILIDEAERALLVRDLGDRNVMILRNHGFVVCGESIEHALSLTYHLIIACETQIRTVPGGNTDNVHFPAQSAIKQVYKVASQGGGGVNRQNGHVNSMQWKKGELEWQAYMRQLDAQGYVTGNVPN	not soluble
MSDHAEEHASINTKKTVENITDVRKTAKTSIDWTKPSGGEYPDIKQKHVWIDVNVKEQKAYIKEGSNTIYTMMISSGLDQTKDDATPKGTFYVEPERGEWFFSEGYQEGAEYWVSWKNHGEFLFHSVPMTKDQKVIKTEAEKLGTKVSHGCIRLTIPDAKWVYENIPEHTKVVISLEHHHHHH	not soluble
MSDKRETRIKSVQNLAPVYNVRDDAKTRRRVALTQMLGRAYNQFNAGDDAAAEKLLEEVLRQDRSSIDAWTLRATIYSKRGDVVHSGEYYRKAAQLAPQRGDVLNNYGAWLCANGYPAEALVWFERAMADPAYGEQPGTLANSGGCALQAGQRDRADHDLRRALELDPSNAYALESMARNEYDKHRYFEARAFSERRLATTVPATASVLKLAIQIEQELGDRAAASRYQQRLVKEFPETVAVEPRG	soluble
MSDPLTAQEQHKRRQAVRELMPRTPFIGGLGIVFERYEPDDVVIRLPFRTDLTNDGTYFHGGVIASVMDTAGAAAAWSNHDFDRGTRAATVAMSIQYTGAAKRCDLLCHARTARRRKELTFTEITATDPDGNIVAHAVQTYRIV	not soluble
MSDPSSINGGIVVAMTGKDCVAIACDLRLGSQSLGVSNKFEKIFHYGHVFLGITGLATDVTTLNEMFRYKTNLYKLKEERAIEPETFTQLVSSSLYERRFGPYFVGPVVAGINSKSGKPFIAGFDLIGCIDEAKDFIVSGTASDQLFGMCESLYEPNLEPEDLFETISQALLNAADRDALSGWGAVVYIIKKDEVVKRYLKMRQD	soluble
MSDPYPATEAHAQRAAKSPPKSLLDRLLSLVRREPEDREGIKAILEAAHERELLDAESYAMIKGALAVSERTVADIMVPRSRMDLLDISQPLPQLLATIIETAHSRFPVYEDDRDNIIGILLAKDLLRYMLEPALDIRSLVRPAVFIPEVKRLNVLLREFRASRNHLAIVIDEHGGISGLVTMEDVLEQIVGDIEDEFDEDEEESIFPEGENQWRLTASTDISHFNATFATDLPDDEYDSVGGWLGGQLGRIPRRGDSADHDGLHIEVVRADARRALWLRVRRNAGAQPPASAAE	soluble
MSDRVIIAGGGIGGLASALTLHQIGVPCVVYEAAREMRPLGVGINLQPNAVRELLDLGITEADLDGVGLPAKEWALVGLNGNDIYAEPRGKAAGYRWPQYAVHRGRFHMLLNDKVIERLGADAVQLGRRVTSYRKTADGVVATVEHADGGTSEVSGALLIGADGIHSAVRAQMHPNQPPIHWGGAVMWRGTTWGKPTRSGASFIGLGTHRHRVVIYPISHPDPATGLSMLNWIAEVTLDNAEGWKQQGWFRQVPTSEFAHHFDGWVWDWLDVPAMIREADSAYENPMIDRDPVATWRDGPVVLIGDAAHAMYPTGSNGGTQAIVDARELGAAMVAHGATEAALAAFDAKLCGPISQLILRNRGAGPFGLLNLVDERCGGTFDNIDDVIPPAERAAFMAGYKAAAGFAIDHLNAAPPTIAPGARVKESAAALEHHHHHH	not soluble
MSDSFGVYVHVPFCSSRCGYCDFNTYTPGELGGTASPESYLDALEKELELAAASGTTRPATTVFIGGGTPSMLGASGLTRVLSAVRNTIGIAPGAEVTTESNPETTSPEFFSELLDAGYNRISLGMQSASSSVLRVLERKHTPGRAFDAALEAMNAGFLHVNLDMIYGTPTETDDDVRLTLERALDTGVDHISAYSLIVEDGTAMARKVHKGQLPPPNEDVYADRYGLIDTALRAQGFDWYEVSNWAKPGGECQHNLGYWLDGDWWGAGPGAHSHIASRRFFNVKHPSTYAQHLADGQLPIKEEELLDSTERHEESVMLGLRLRQGLELSRFTEAERAVIEKYVGLKLLHIYDGRVASTLQGRLLIDGIIADILVAYLEHHHHHH	not soluble
MSDSQTLVVKLGTSVLTGGSRRLNRAHIVELVRQCAQLHAAGHRIVIVTSGAIAAGREHLGYPELPATIASKQLLAAVGQSRLIQLWEQLFSIYGIHVGQMLLTRADMEDRERFLNARDTLRALLDNNIVPVINENDAVATAEIKVGDNDNLSALAAILAGADKLLLLTDQKGLYTADPRRNPQAELIKDVYGIDDALRAIAGDSVSGLGTGGMSTKLQAADVACRAGIDTIIAAGSKPGVIGDVMEGISVGTLFHAQATPLENRKRWIFGAPPAGEITVDEGATAAILERGSSLLPKGIKSVTGNFSRGEVIRICNLEGRDIAHGVSRYNSDALRRIAGHHSQEIDAILGYEYGPVAVHRDDMITR	not soluble
MSDYCSNDASPFGDYDLPSDEPSPKYQKLNKNIFSPLSPTFELKFQSKLRVSGNSTSSTTSDDSDDESLHRSNQLKHLETLFKESILRTSFSRPGVSNTSCDEKLDLVSEDEKKRLRNTEAARRCREKIKRKTDDLETELTRLTARNEVMNQHRIRLLSQVEEQMRMLENIKSRNPELEAEIRYEAKKIVDTYTHQVETKRKAIQDYFDMTCNKLY	not soluble
MSDYSAKPSGSLARIGDYDLSSDDSDQNDEDETLIASKTIQTGAVQVNDIAVAEASPAETDAKSSASPVSGPEPPTSAVVENRDLDEFKKESGSNDDKQEEINEDKDSNEETVFQQTESGSADVVDKTDVKQKDSDSSADDDHSHSKSGSVHSPQKPQGSTTPCSVQSPASPVGDEQAVKMEEVEEPIVASEEVPDKKPESVKESTDSESSGSEHGFEKMDTAEKVEDECNDDEVAASNGTEEPEPGDKAADTVNPWETPRQEPVDGVVQPRTEPPAGKPTRHTNCLDFVLFTVVKDALKHKHSWPFQLPVDAIKLEIPEYHNIVNTPMDLRTIEKRLRNLYYWCAEDAIKDLNTLFDNCKKFNDRNDDIYIMCENIEGVVQRGLEWMPSEEKPADLADHHRRGMFSASTPSGKTKGPKQRGRKSTRGRKKTSLPRGASTFKDESVDDNNDDESSKVDSINFDDDDDTATEKDAESRAESVQPEVVNEEPKPSTSQPPSKKRKAENGEPAVAVKIATPATPVAAHPQEETPRRKNPNTLIEWKHLVPRWQGKIPEWQKFCSKLLNEIHSVKNKGFAQVFYLPVDPIKLKIYDYLEVITNPMDLQTIKKKLDFKQYAEPEEFVHDINLMVDNCCKYNPKGSPAHSNALELRSFFEQRWKLFPRPGVDPIIADSYINQNLVVNTDLIEDERINSYLSAVKAEEKKCAEKLEQLRSMSEGLYTIAMQRREAKLAGNTAPALAQNQLSQLEGLGISIKSTPMMIPELISPALSVRSSSRAPVPKIIDDIGPSPIKARKISKPRASMASNVSVPYTPTGNPRGRKPKKSGRPKKNIYSPATVSERISQQPPFEVTPYVSIYGRKVVGTNDKIELSERMASIPQMYITPILRIIQIGHHNTGKTITSLRSLCEEEIDFNDVSDDLVIELLDYLEMIQKDKAKAEQVRQELEVKAKFYGFEAYDNKLGTIPKTRNMPPPLQHRMRSDSPSPSASRTGNQSSDSDSASDDSSDDEPSRSNSNVAGPRRALELSGNSSSASTPAGPSKAQPAVVRPSSKSVASKPAYTKRTLSESSSSSDSNGSSSDSSDSDSEPS	not soluble
MSECSASTSQLSTFCVNEIPWKLVPQTCDEFSEYEFIDEKYRRLSDVESFVWKWSPCGRYGIDLPGGRDVINQQLRDRMAVFDLHTNKWTLYTMDRGAFEIPRVCFLYWARNDIIGTITLVKDYEAGPDDEIPLKFKQSFFYVSHETQTLVYSGSCKYRTNKTIVASYWYHIFENRRGEPFIDHNNYLWLVFSNGVDSLILLPFIPTSTCFKAKCVSFDMNDIVSQFTGIRVFLDPFVSSHYVPWVYRNDVNFFIRIDSHSFIEEQNRDYGLDPQIDNPETKPHRGVFQLRVNLKDVIEKGEKDAIHAVNPETIETRFNRGDIELWRKISDELRQEHQSIAQHGKMVVVQRWSHFTVDMGLSKKMRTRVADLDARDYCCSHKPRNSSFCCIDLDSERIKAVDALILGTDVVLPHPSGSVFLFRYKENYGMSYCELPFFQPLSLKLKCIQVLKESVEIDPSYYRIKCCLKMQEELEKETAENLCTINIQQ	not soluble
MSEDLNAGPKVNREFKNSVFTLLFNEVEAIRDIAGAVGAMLGKEINPDTPIKKTTLQNALLGGKLNDLSFVLDDKLIVLIEHQSTINKNMPLRMLHYISEIYNRLYDKKDLYKREKISIPKPVFIVLYNGEEDIKDFEEYLLSDLFKDFDISKEPPCLELRVQVRNINKGHSAEIVKQSPLLRDYVAFVEEVREANREEGASPELAMEKAVENCIKKGILTIFLTRHKEEVIKMLVAEWDYELDLEVAKEEAHEKGLSQGRDEERRKNIKDLYRIGVGIETIAKAFDLSERQVKDILGL	not soluble
MSEDQMKQQLVIDQKAVKETLQQMLTSDQGKKFWESALKDPKFAESFAKGLQAEHEKMMKALMKDPDYQALMIDILKDPEMEKAMVDVLKSKEFRQHLQKVITETLNSPLYQAKIQDMLMKAAEKVQQGGEKQEEEGGGEGGEGEGEESTGNQQGGGG	not soluble
MSEEGPQVKIREASKDNVDFILSNVDLAMANSLRRVMIAEIPTLAIDSVEVETNTTVLADEFIAHRLGLIPLQSMDIEQLEYSRDCFCEDHCDKCSVVLTLQAFGESESTTNVYSKDLVIVSNLMGRNIGHPIIQDKEGNGVLICKLRKGQELKLTCVAKKGIAKEHAKWGPAAAIEFEYDPWNKLKHTDYWYEQDSAKEWPQSKNCEYEDPPNEGDPFDYKAQADTFYMNVESVGSIPVDQVVVRGIDTLQKKVASILLALTQMDQDKVNFASGDNNTASNMLGSNEDVMMTGAEQDPYSNASQMGNTGSGGYDNAW	soluble

— the DeepSol protein solubility set
